Results reported in publication PMC7599842, “PARP1 Deficiency Reduces Tumour Growth by Decreasing E2F1 Hyperactivation: A Novel Mechanism in the Treatment of Cancer” (Cancers, 2020).

Biological target: T1, PARP1 (poly (ADP-ribose) polymerase-1) (UniProt P09874 1-1014)
T1 construct: PARP1, bought from Trevigen; Commercial protein; catalogue number not given; source: bought: Trevigen
Experiment: BLI; GST-E2F1 immobilised on GST biosensors; serial dilutions of PARP1; FortéBio BLItz instrument, global fitting
Settings: both partners purified

T1 sequence (P09874 whole entry): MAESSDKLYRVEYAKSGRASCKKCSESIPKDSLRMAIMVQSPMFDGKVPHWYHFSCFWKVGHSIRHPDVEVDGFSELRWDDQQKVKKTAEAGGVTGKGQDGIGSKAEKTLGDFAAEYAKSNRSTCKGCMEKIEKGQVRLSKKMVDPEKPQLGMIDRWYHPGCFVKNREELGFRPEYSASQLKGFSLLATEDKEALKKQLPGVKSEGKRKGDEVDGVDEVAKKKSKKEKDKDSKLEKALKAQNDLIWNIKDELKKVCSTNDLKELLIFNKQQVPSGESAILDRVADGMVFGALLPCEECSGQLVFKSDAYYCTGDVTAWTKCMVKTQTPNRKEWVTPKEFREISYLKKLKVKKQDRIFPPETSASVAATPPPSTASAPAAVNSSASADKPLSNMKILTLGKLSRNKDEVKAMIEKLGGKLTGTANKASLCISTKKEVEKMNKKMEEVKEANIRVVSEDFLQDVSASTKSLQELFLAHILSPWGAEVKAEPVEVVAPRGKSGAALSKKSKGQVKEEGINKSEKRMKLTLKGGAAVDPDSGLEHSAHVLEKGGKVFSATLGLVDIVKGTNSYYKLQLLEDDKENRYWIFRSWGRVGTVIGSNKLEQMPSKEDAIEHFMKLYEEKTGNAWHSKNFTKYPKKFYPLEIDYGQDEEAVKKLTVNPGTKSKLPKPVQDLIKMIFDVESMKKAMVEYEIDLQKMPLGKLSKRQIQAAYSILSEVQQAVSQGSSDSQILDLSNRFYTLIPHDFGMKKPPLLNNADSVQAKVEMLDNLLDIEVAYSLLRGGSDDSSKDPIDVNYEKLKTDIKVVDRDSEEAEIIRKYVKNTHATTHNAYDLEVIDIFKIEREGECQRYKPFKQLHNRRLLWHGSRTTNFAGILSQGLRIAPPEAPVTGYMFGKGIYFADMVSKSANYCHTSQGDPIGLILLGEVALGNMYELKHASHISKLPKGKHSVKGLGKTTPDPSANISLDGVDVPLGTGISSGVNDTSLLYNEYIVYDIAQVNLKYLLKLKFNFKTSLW

B1: Recombinant GST-hE2F1 (natural protein)
chain: not shown
notes: E2F1 transcription factor, human (hE2F1); also called GST-E2F1; source: recombinant, purified as described elsewhere [27]
**Q.** Which Kd does the source give for B1 here?
**A.** The Kd was 22 µM.
